This is an account of results in patent US20180298377A1 (RESEARCH FOUNDATION FOR THE STATE UNIVERSITY OF NEW YORK, published 2018).

In assay [3] the target is Snq2-F[3] (S. cerevisiae, UniProt P32568 2-1501; P00375 107-187). Put plainly: cell-based or functional assay.
The target in assay [3] is Pdr5-F[3] (S. cerevisiae, UniProt P33302 1-1511; P00375 107-187). Kind of assay: cell-based or functional assay.
In assay [1] the target is T1, Pdr5 split Renilla luciferase (Rluc) PCA fusion (S. cerevisiae, UniProt P33302 1-1511).
T1 construct: whole, on cells; DHFR fragment of the Pdr5-F[3] strain replaced by an Rluc PCA fragment by homologous recombination; also called Pdr5 (Rluc PCA strain); not shown: linker of the pAG25/pAG32-linker-Rluc cassettes; Renilla luciferase PCA fragment; DHFR F[3] strains are said to receive Rluc F[1], but the next sentences call preys Rluc
T1 sequence (P33302 whole entry, the tested form may be a part): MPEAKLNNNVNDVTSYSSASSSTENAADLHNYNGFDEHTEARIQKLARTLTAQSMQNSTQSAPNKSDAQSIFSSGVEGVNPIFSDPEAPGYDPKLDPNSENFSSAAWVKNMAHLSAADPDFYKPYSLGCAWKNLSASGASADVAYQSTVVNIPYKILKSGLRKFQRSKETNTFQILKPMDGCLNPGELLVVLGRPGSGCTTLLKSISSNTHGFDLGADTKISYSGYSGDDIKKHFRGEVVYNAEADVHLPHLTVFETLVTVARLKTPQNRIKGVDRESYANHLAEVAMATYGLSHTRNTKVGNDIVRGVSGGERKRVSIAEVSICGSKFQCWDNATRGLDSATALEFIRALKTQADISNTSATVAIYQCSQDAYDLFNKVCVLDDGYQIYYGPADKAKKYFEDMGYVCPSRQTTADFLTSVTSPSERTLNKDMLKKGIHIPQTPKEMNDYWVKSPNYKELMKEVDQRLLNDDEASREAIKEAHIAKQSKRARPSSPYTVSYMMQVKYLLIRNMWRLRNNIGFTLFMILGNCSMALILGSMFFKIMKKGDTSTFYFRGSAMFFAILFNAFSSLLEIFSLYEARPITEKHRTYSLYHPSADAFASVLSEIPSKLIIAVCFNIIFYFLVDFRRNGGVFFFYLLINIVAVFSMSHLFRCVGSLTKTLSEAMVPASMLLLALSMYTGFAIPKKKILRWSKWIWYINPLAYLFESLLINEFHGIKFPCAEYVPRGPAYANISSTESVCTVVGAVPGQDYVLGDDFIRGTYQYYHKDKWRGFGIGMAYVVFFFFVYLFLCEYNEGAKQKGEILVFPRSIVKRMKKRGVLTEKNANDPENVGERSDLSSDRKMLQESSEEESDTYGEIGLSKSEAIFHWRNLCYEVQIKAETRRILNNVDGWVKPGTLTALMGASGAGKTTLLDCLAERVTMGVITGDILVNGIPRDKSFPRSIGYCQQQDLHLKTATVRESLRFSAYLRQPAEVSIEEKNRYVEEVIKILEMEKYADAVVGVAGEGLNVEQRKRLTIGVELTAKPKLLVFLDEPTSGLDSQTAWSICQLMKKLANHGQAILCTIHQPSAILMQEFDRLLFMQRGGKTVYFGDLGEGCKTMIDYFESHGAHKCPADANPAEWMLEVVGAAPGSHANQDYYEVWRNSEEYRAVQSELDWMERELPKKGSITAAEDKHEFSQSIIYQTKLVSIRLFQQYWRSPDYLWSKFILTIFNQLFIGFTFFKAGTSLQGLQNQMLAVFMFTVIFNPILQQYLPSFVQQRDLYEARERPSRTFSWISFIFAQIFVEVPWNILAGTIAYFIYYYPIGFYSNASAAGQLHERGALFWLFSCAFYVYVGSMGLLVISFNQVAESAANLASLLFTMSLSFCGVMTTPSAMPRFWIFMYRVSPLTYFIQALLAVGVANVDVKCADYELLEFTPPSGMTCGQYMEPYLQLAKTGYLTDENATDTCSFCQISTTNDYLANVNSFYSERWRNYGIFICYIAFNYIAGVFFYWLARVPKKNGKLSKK
Kind of assay: split Renilla luciferase PCA, luminescence of yeast cells, 200 µM copper sulfate. The method, then: Triplicate fresh colonies of each diploid Rluc PCA strain were grown in 5 ml synthetic dextrose media supplemented with standard concentrations of histidine, leucine, and uracil at 30° C. for 24 h, then diluted 1:32 into 5 ml of the same media supplemented DMSO (0.5%), FK506 (50 μM), hydrogen peroxide (0.001%), sodium chloride (175 mM), or copper sulfate (200 μM). Cells were grown for 24 h at 30° C., diluted 1:32 again into fresh media containing the same supplement, and grown for another 6 h. Cells were counted, and 1-2×10⁷ cells were pelleted, and resuspended in 180 ul phosphate-buffered saline (PBS), pH 7.2 containing 1 mM EDTA. Cells were transferred to white 96-well flat bottom plates (Greiner bio-one #655075). The luciferase substrate, benzyl coelenterazine (Nanolight #301), was diluted 1:10 from the stock (2 mM in absolute ethanol) using 1×PBS, and 20 ul of diluted substrate was added to each sample (to a final concentration of […]). A Centro LB 960 microplate luminometer (Berthold Technologies) was used to measure the Rluc PCA signal, which was integrated for 10 seconds. Changes in luminescence in response to a specific condition were calculated by the following equation: luminescencecondition/luminescenceDMSO.

Assay [3] has as its target T2, Fpr1-F[3] (S. cerevisiae, UniProt P20081 2-114; P00375 107-187).
T2 sequence (looked up): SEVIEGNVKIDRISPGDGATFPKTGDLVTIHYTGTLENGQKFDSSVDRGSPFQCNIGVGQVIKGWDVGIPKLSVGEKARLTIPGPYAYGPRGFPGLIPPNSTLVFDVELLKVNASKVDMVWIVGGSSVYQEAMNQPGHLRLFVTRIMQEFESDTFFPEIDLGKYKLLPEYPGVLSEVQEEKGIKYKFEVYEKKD
Kind of assay: cell-based or functional assay.

Assay [3] concerns the target T3, Hxt1-F[3] (S. cerevisiae, UniProt P32465 1-570; P00375 107-187).
T3 sequence (looked up): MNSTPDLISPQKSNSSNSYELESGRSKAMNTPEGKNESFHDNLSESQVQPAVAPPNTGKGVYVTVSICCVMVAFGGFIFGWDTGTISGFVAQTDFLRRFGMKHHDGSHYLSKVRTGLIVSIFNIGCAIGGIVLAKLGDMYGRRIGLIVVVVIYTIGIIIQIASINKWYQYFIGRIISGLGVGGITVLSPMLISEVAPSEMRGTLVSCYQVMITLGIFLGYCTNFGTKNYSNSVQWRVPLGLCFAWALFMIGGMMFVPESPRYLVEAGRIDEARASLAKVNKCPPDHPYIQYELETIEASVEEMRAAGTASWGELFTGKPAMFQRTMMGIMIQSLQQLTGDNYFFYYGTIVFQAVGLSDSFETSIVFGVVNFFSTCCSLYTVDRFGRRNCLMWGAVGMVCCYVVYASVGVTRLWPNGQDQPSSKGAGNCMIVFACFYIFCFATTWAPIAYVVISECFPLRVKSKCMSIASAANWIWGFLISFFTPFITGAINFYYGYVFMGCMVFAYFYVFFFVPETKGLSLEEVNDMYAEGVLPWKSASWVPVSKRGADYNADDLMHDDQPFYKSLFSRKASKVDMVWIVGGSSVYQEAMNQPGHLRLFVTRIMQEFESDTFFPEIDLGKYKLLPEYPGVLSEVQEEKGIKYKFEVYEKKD
Kind of assay: cell-based or functional assay.

B1: Tpo1-F[1,2] (other, UniProt Q07824 1-586, looked up, not shown: small tags and cut ends)
chain: MSDHSPISNKENHLLPSDSSRSSSSDMHSTGTTGTTGVEPVDFTGEGAKYTTATEGNGGADLAIQRTTTMNSAAESEVNITRRLTKILTGSVNEPDRVEVDYTNCAPMGGDRPYPPSLPSRDLYEVTFDGPNDPLHPFNWPMKKKVLLCLVLCLDSIAIAMCSSIFASAVPQICEIYHVIEVVAILGITLFVLGFAASPVIYAPLSELYGRKGVLVLSAFGFALFQFAVATAENLQTIFICRFFGGFIGAAPMAVVPAAFADMFDTNVRGKAIALFSLGVFVGPILSPVMGSYIAQRTTWRWLEYVVGCFASAVFVAIVLFFEETHHPTILVNKAKQMRKQSNNWGIHAAHEDVELSIKDIVQKTVTRPIIMLFVEPLLLFVTIYNSFVYGILYLLLEAYPLVFVEGYGFTENGELPYIALIIGMMVCAAFIWYMDNDYLKRCRAKGKLVPEARLYAMVIAGTVFPIGILWFCWTGYYPHKIHWMVPTVGGAFIGFGLMGIFLPCLNYIIESYLLLAASAVAANTFMRSAFGACFPLFAGYMFRGMGIGWAGLLLGLFAAAMIPVPLLFLKYGESIRKKSKYAYAAVRPLNCIVAVSQNMGIGKNGDLPWPPLRNEFKYFQRMTTTSSVEGKQNLVIMGRKTWFSIPEKNRPLKDRINIVLSRELKEPPRGAHFLAKSLDDALRLIEQPEL
Take B1: in the assay with Snq2-F[3], the “fitness (PPiSeq, MTX(+), benign environment)” value worked out at 0.08.

B2: Ftr1-F[1,2] (other, UniProt P40088 1-404, looked up, not shown: small tags and cut ends)
chain: MPNKVFNVAVFFVVFRECLEAVIVISVLLSFLKQAIGEHDRALYRKLRIQVWVGVLLGFIICLAIGAGFIGAYYSLQKDIFGSAEDLWEGIFCMIATIMISMMGIPMLRMNKMQSKWRVKIARSLVEIPHRKRDYFKIGFLSRRYAMFLLPFITVLREGLEAVVFVAGAGITTQGSHASAYPLPVVVGLICGGLVGYLLYYGASKSSLQIFLILSTSILYLISAGLFSRGAWYFENYRFNLASGGDASEGGDGNGSYNIRKAVYHVNCCNPELDNGWDIFNALLGWQNTGYLSSMLCYNIYWLVLIIVLSLMIFEERRGHLPFTKNLQLKHLNPGYWIKNKKKQELTEEQKRQLFAKMENINFNEDGEINVQENYELPEQTTSHSSSQNVATDKEVLHVKADSLVRPLNCIVAVSQNMGIGKNGDLPWPPLRNEFKYFQRMTTTSSVEGKQNLVIMGRKTWFSIPEKNRPLKDRINIVLSRELKEPPRGAHFLAKSLDDALRLIEQPEL
Regarding B2, the “fitness (PPiSeq, MTX(+), benign environment, relative to control strain lacking mDHFR fragments)” value in the assay with Pdr5-F[3] was determined as 0.1.

B3: Fmp45-F[1,2] (other, UniProt Q07651 1-309, looked up, not shown: small tags and cut ends)
chain: MIFKRFVNLLVFLFLLGAGLLTFFLILSGGRESGTLKNFYWLQADTNGFNSAPSTTRWYNYNWCGYEDGQLANCSSRAPAKPFSPRDNFGNSVNLPSSFRNNRDTYYYLSRVGWAMLLISLFFIVLALVPGFLATFLPFKAVPVLYCVLSWLAFFFIILAACLYTGCYVKARKTFRNSGRSARLGPKNFAFIWTSVFLMLVNAIWSTIFSATHKAHSTYSDHDMYAQYESPSVDTGAQMEKSTYNSGATDGAGPITAAPVVGQPQPTTTTTPAGNGKFFQKLKTRKQVPSAELEPAGDGGLAGPVTVRDVRPLNCIVAVSQNMGIGKNGDLPWPPLRNEFKYFQRMTTTSSVEGKQNLVIMGRKTWFSIPEKNRPLKDRINIVLSRELKEPPRGAHFLAKSLDDALRLIEQPEL
Regarding B3, the “fitness (PPiSeq, MTX(+), benign environment)” value with Pdr5-F[3] is 0.06.

B4: Ftr1 split Renilla luciferase (Rluc) PCA fusion (other, S. cerevisiae, UniProt P40088 1-404, looked up)
chain: MPNKVFNVAVFFVVFRECLEAVIVISVLLSFLKQAIGEHDRALYRKLRIQVWVGVLLGFIICLAIGAGFIGAYYSLQKDIFGSAEDLWEGIFCMIATIMISMMGIPMLRMNKMQSKWRVKIARSLVEIPHRKRDYFKIGFLSRRYAMFLLPFITVLREGLEAVVFVAGAGITTQGSHASAYPLPVVVGLICGGLVGYLLYYGASKSSLQIFLILSTSILYLISAGLFSRGAWYFENYRFNLASGGDASEGGDGNGSYNIRKAVYHVNCCNPELDNGWDIFNALLGWQNTGYLSSMLCYNIYWLVLIIVLSLMIFEERRGHLPFTKNLQLKHLNPGYWIKNKKKQELTEEQKRQLFAKMENINFNEDGEINVQENYELPEQTTSHSSSQNVATDKEVLHVKADSL
notes: whole, on cells; DHFR fragment of the Ftr1-F[1,2] strain replaced by an Rluc PCA fragment by homologous recombination; also called Ftr1 (Rluc PCA strain); not shown: linker of the pAG25/pAG32-linker-Rluc cassettes; Renilla luciferase PCA fragment; DHFR F[1,2] strains are said to receive Rluc F[2], but the next sentences call baits Rl
Consider B4, for which, in assay [1], the binding result was “binds”.

B5: Hom3-F[1,2] (other, UniProt P10869 1-527, looked up, not shown: small tags and cut ends)
chain: MPMDFQPTSSHSNWVVQKFGGTSVGKFPVQIVDDIVKHYSKPDGPNNNVAVVCSARSSYTKAEGTTSRLLKCCDLASQESEFQDIIEVIRQDHIDNADRFILNPALQAKLVDDTNKELELVKKYLNASKVLGEVSSRTVDLVMSCGEKLSCLFMTALCNDRGCKAKYVDLSHIVPSDFSASALDNSFYTFLVQALKEKLAPFVSAKERIVPVFTGFFGLVPTGLLNGVGRGYTDLCAALIAVAVNADELQVWKEVDGIFTADPRKVPEARLLDSVTPEEASELTYYGSEVIHPFTMEQVIRAKIPIRIKNVQNPLGNGTIIYPDNVAKKGESTPPHPPENLSSSFYEKRKRGATAITTKNDIFVINIHSNKKTLSHGFLAQIFTILDKYKLVVDLISTSEVHVSMALPIPDADSLKSLRQAEEKLRILGSVDITKKLSIVSLVGKHMKQYIGIAGTMFTTLAEEGINIEMISQGANEINISCVINESDSIKALQCIHAKLLSERTNTSNQFEHAIDERLEQLKRLGIVRPLNCIVAVSQNMGIGKNGDLPWPPLRNEFKYFQRMTTTSSVEGKQNLVIMGRKTWFSIPEKNRPLKDRINIVLSRELKEPPRGAHFLAKSLDDALRLIEQPEL
Turning to B5, the “fitness in 50 µM FK506 against the benign environment (PPiSeq, MTX(+))” value with Fpr1-F[3] is around 10 fold.

B6: Shr3-F[1,2] (other, UniProt Q02774 1-210, looked up, not shown: small tags and cut ends)
chain: MFSYSDFCSIGTAMILSATTFLMGVFFSNMPYDYHLLFNPNSTQEHFDLALRHYQILHETPLPVIVTLCVVAGIGLVGGTIKVFKPNPELQMFEYCSLGLYVLAICVFLTNVKTGIDCSVSHNWGEVTENQGLAVIASSNIILLVMFAGVIILQIGLWYSNWDLQKRLKEFYAQEEREAANAGKKTEKVDNAKKNDNKSKGAQKRKNAKKVRPLNCIVAVSQNMGIGKNGDLPWPPLRNEFKYFQRMTTTSSVEGKQNLVIMGRKTWFSIPEKNRPLKDRINIVLSRELKEPPRGAHFLAKSLDDALRLIEQPEL
B6: in the assay with Hxt1-F[3], the “fitness (PPiSeq, MTX(+), benign environment)” value is 0.1.
